One assay has as its target HER3 (form not given) (human, UniProt P21860 20-643, limits assumed). In words: affinity maturation of DL11.
Assay [1] concerns the target T1, hEGFR-ECD (human, UniProt P00533 25-645).
T1 construct: extracellular domain
Nature of the assay: phage IC50 (solution competition ELISA), compared to D1.5-201.

Assay [2] addresses T2, HER2-ECD (human, UniProt P04626 23-652).
T2 construct: extracellular domain
The description is as above.

Assay [3] deals with T3, human HER3-Fc (Example 9) (human, UniProt P21860 20-640).
T3 construct: range 1-640; Produced in CHO cells, protein A purified; also called human HER3-IgG1; not shown: Fc region of human IgG1
Nature of the assay: SPR, both experiments; reference: affinity for EGFR. On the technique in general: Surface plasmon resonance follows binding to a sensor surface in real time, without labels.

The target in assay [4] is T3, human HER3-Fc (Example 9). In words: SPR BIAcore 2000, Fc fusion captured on CM5 with human Antibody Capture Kit, Fab analyte 0.244-250 nM, 25 C, 1:1 Langmuir.
The target in assay [5] is T4, human EGFR-Fc (Example 9) (human, UniProt P00533 25-637).
T4 construct: range 1-637; Produced in CHO cells, protein A purified; also called Recombinant human EGFR-IgG1; not shown: Fc region of human IgG1
The assay is described as above.

Assay [6] addresses T5, HER3-ECD-Fc (human, UniProt P21860 20-643, limits assumed).
T5 construct: extracellular domain; also called HER3-FC; HER3-IgG
Nature of the assay: direct phage ELISA, proteins coated at 2 µg/ml, phage-Fab supernatant, OD450.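 Note: specificity test of dual-activity clones, with binding assessed across an antigen panel to check whether each recognises only its cognate target.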 In general terms: An ELISA detects its analyte on a solid surface through an enzyme-linked reagent.

The target of assay [7] is T6, Xolair.
T6 construct: not shown: the constant regions
The assay is described as above.

Assay [8] has as its target T7, BSA (bovine, UniProt P02769).
T7 construct: also called bovine serum albumin
The description is as above.

In assay [9] the target is T8, hEGFR-ECD-Fc (human EGFR extracellular domain fused to an Fc region of human IgG1) (human, UniProt P00533 25-645).
T8 construct: extracellular domain; not shown: Fc region of human IgG1
Described as above.

For assay [10], the target named is T2, HER2-ECD. The assay is described as above.
Assay [11] addresses T9, HER4-ECD-Fc (human, UniProt Q15303 26-651, limits assumed).
T9 construct: extracellular domain
T9 sequence (looked up): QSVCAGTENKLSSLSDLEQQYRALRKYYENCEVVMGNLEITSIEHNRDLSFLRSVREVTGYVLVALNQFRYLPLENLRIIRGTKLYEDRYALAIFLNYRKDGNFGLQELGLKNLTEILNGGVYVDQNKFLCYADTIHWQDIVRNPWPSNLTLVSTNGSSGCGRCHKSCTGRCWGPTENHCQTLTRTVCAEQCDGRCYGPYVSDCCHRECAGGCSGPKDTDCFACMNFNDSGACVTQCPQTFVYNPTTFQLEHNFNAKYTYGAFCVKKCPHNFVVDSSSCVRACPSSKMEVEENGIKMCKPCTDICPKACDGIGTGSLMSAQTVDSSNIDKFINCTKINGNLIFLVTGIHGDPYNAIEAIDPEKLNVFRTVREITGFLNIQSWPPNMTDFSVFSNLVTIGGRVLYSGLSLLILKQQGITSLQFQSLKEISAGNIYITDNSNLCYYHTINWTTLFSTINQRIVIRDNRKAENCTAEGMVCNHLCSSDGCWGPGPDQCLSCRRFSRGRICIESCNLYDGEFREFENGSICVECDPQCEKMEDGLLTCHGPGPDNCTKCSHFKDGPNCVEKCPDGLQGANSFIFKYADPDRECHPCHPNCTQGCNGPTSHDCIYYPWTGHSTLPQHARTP
The description is as above.

The target in assay [12] is T10, monomeric human HER3-ecd (Example 9) (human, UniProt P21860 20-643).
T10 construct: extracellular domain
Nature of the assay: SPR, both experiments; reference: affinity for EGFR.

Assay [13] deals with HER3 on cells (MCF7 cells; MDA-175 cells) (UniProt P21860 20-1342, limits assumed). In words: cell-based or functional assay.
The target in assay [14] is T10, monomeric human HER3-ecd (Example 9). In words: SPR BIAcore 2000, DL11f human IgG1 immobilized on CM5, monomeric ecd analyte 0.244-250 nM, 25 C.
The target in assay [15] is T11, monomeric human EGFR-ecd (Example 9) (human, UniProt P00533 25-637).
T11 construct: range 1-637
The assay is described as above.

A further assay deals with T12, mEGFR-ECD-Fc (murine, UniProt Q01279 25-647).
T12 construct: extracellular domain; also called murine EGFR; not shown: Fc
Nature of the assay: competitive ELISA: serial dilutions of mEGFR-ECD-Fc with fixed D1.5 on hEGFR-ECD-Fc coated plate.

In assay [16] the target is T1, hEGFR-ECD. Nature of the assay: SPR, BIAcore-2000, mIgG D1.5 immobilized on CM5 (~150 RU), EGFR-ECD 12.5-200 nM as analyte, 25 C, 1:1 Langmuir model.
Another assay has as its target T13, TGF-α.
T13 construct: also called transforming growth factor alpha
In words: direct phage ELISA on coated proteins as in Example 5, OD450.

Another assay addresses T14, mHER3-Fc.
T14 chain: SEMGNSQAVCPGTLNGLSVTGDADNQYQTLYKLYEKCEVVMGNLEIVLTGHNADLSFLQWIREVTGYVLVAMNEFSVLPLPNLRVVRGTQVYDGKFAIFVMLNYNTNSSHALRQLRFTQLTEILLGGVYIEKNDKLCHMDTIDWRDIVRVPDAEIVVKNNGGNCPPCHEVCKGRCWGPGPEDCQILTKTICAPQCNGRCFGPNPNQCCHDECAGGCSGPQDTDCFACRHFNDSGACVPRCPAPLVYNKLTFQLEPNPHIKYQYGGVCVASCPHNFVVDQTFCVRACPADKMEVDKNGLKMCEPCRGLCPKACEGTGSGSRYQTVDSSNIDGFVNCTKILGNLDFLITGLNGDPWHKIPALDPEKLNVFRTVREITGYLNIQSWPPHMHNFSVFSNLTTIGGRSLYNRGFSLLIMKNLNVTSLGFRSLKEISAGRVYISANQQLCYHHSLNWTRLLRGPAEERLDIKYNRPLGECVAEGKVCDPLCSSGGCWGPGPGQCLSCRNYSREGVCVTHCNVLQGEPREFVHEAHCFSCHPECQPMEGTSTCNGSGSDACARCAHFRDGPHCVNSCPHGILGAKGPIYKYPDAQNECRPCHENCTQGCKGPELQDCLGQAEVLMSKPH
The assay is described as above.

In assay [17] the target is T6, Xolair. The assay is described as above.
The target in assay [18] is T7, BSA. The description is as above.
Assay [19] concerns the target T9, HER4-ECD-Fc. Described as above.
The target in assay [20] is T5, HER3-ECD-Fc. Nature of the assay: phage solution binding competition ELISA as in Example 1, antigen in solution varied.
Assay [21] has as its target T1, hEGFR-ECD. Described as above.
The target of assay [22] is T2, HER2-ECD. In words: direct phage ELISA on coated proteins as in Example 5, OD450.

Positions count from the first letter of the chain named.

T7 sequence (P02769 25-607 limits assumed): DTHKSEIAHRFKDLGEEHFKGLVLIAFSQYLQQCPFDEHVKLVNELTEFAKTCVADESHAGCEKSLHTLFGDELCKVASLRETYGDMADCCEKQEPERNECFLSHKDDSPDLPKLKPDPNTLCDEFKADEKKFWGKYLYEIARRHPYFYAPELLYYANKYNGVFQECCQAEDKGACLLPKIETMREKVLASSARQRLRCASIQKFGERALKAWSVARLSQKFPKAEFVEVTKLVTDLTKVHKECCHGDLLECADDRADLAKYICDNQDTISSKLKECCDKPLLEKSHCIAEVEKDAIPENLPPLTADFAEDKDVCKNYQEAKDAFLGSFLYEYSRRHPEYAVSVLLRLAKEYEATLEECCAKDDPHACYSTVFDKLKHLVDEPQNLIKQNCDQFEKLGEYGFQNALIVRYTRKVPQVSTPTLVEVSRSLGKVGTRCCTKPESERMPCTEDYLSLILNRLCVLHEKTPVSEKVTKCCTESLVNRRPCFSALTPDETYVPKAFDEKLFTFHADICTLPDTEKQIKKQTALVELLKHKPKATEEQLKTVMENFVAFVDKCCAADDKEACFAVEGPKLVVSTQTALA

B1: DL3-11f (antibody, V domains shown)
VH: EVQLVESGGGLVQPGGSLRLSCAASGFTLSGDWIHWVRQAPGKGLEWVGEISAAGGYTDYADSVKGRFTISADTSKNTAYLQMNSLRAEDTAVYYCARESKVSFEAAMDYWGQGTLVTVSS
VL: DIQMTQSPSSLSASVGDRVTITCRASQNIATDVAWYQQKPGKAPKLLIYSASFLYSGVPSRFSGSGSGTDFTLTISSLQPEDFATYYCQQSEPEPYTFGQGTKVEIKR
For the molecule B1, in the assay with HER3 (form not given), the binding result is given as “binds”.

B2: D1.5-201-3 (phage-displayed Fab clone) (Fab, V domains shown)
VH: B1 VH with L29F, S30T, D32N, A53P, A54S, K101R, F104Y
VL: DIQMTQSPSSLSASVGDRVTITCRASQSLWAAYFAPVAWYQQKPGKAPKLLIYDGSYLYSGVPSRFSGSGSGTDFTLTISSLQPEDFATYYCQQRLPSPYTFGQGTKVEIKR
On to B2, for which the binding result with hEGFR-ECD [1] and in the assay with HER2-ECD [2] was “binds” throughout.

B3: DL11f Fab (Fab, V domains shown)
VH: B1 VH with K101R
VL: B1 VL
By Kd is commonly meant the constant that tells how readily two partners part at equilibrium. Low readings indicate higher affinity, high ones lower affinity. With B3, the “fold higher affinity for HER3 than for EGFR” value in assay [3] was 5 to 8 fold. The Kd worked out at 0.39 nM in assay [4] and 1.92 nM in assay [5].

B4: D1.5-400 (phage-displayed Fab clone) (Fab, V domains shown)
VH: B1 VH with L29F, S30T, D32N, A53P, A54S, K101R, F104Y
VL: DIQMTQSPSSLSASVGDRVTITCRASQDVLFYGNVAWYQQKPGKAPKLLIYDGSYLYSGVPSRFSGSGSGTDFTLTISSLQPEDFATYYCQQSYPAPYTFGQGTKVEIKR
notes: EGFR/HER4 clone
For B4, the binding result in the assay with HER3-ECD-Fc [6] is reported as “no binding”; with Xolair [7], “no binding”; in the assay with BSA [8], “no binding”; in [9], “binds”; in the assay with HER2-ECD [10] it was “no binding”; in the assay with HER4-ECD-Fc [11] it was “binds”.

B5: DL11f (human IgG1) (bispecific antibody, V domains shown)
VH: B1 VH with K101R
VL: B1 VL
In the case of B5, the “fold higher affinity for HER3 than for EGFR” value in assay [12] lay in the range of 5 to 8 fold. Further, in [13], the “IC50 of inhibition of MDA-175 cell proliferation” value lay within 0.8 to 1 µg/mL. Also, the Kd in [14] is 2.63 nM; in assay [15], 19.9 nM.

B6: D1.5 (mIgG2A) (antibody, V domains shown)
VH: B1 VH with L29F, S30T, D32N, A53P, A54S, K101R, F104Y
VL: B1 VL with N28D, I29V, A30S, D32A, E92Y, E94T
notes: also called mIgG D1.5; anti-EGFR mIgG2A
For the molecule B6, the binding result with mEGFR-ECD-Fc is listed as “binds”. In the assay with hEGFR-ECD [16], this molecule displayed a Kd of 1.2 nM.

B7: D1.5-201-2 (phage-displayed Fab clone) (Fab, V domains shown)
VH: B1 VH with L29F, S30T, D32N, A53P, A54S, K101R, F104Y
VL: B2 VL with S26N, L29I, W30A, A31G, F34Y, S56Y, Y57F
With B7, the binding result with hEGFR-ECD [1] and with HER2-ECD [2] was “binds” in each case.

B8: DL11 (phage-displayed Fab clone) (Fab, V domains shown)
VH: B1 VH with V48L, K101R
VL: B1 VL with N28D, I29L
notes: single Fab on phage
Broadly, the IC50 is the midpoint of a concentration-inhibition curve. Take B8: the binding result with TGF-α, with mHER3-Fc, with Xolair [17], with BSA [18] and in the assay with HER4-ECD-Fc [19] was “no binding” in each case. Besides, the IC50 in the assay with HER3-ECD-Fc [20] was determined as 0.43 nM; with hEGFR-ECD [21], 5.7 nM.

B9: DL7 (phage-displayed Fab clone) (Fab, V domains shown)
VH: B1 VH with S100A, K101R, F104Y
VL: B1 VL with N28D, I29L
For B9, the binding result with TGF-α, in the assay with mHER3-Fc, with Xolair [17], with BSA [18], in the assay with HER2-ECD [22] and with HER4-ECD-Fc [19] was “no binding” throughout. The IC50 amounted to 0.25 nM with HER3-ECD-Fc [20] and 6.1 nM with hEGFR-ECD [21].

B10: DL11b (bispecific antibody, V domains shown)
VH: B1 VH with V48L, K101R
VL: B1 VL
As for B10, the “IC50 of inhibition of MDA-175 cell proliferation” value in assay [13] was 0.8 to 1 µg/mL.

B11: DL3-11b (antibody, V domains shown)
VH: B1 VH with V48L
VL: B1 VL
notes: also called DL3-11fb
Take B11: the binding result in the assay with HER3 (form not given) is “binds”.

These data come from patent US20120121596A1 (published 2012).
